The record followed here is patent US20100285027A1 (CENTRE NATIONAL DE LA RECHERCHE SCIENTIFIQUE, published 2010).

Experiment [1] has as its target T1, synthetic human hepcidin-25 (human).
T1 construct: Synthetic peptide (Peptide International for the blots); Serum hepcidin and liver hepcidin detected by AN-LP1 are written under this molecule
T1 peptide: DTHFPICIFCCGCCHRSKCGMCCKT
The experiment can be described thus: SPR (BIAcore 2000), AN-LP1 immobilized on a CM5 chip, hepcidin 0.39 nM to 12.5 nM as analyte. Here is the method:
To estimate AN-LP1 affinity constant and the antibody-antigen interactions, surface plasmon resonance (SPR) measurements were performed with a BIAcore 2000 instrument using carboxymethylated dextran CM5 chips (BIAcore, Piscataway, N.J.). AN-LP1 mAb, dilued at 2 μg/ml in 5 mM maleate buffer (pH 5.75), was immobilized on the CM5 chips by amine coupling.
Hepcidin was diluted in running buffer HBS-EP (0.01M HEPES pH 7.4; 0.15M NaCl, 3 mM EDTA and 0.005% polysorbate 20). Analyte was injected in 3 min, 60 μL/min injections and dissociation was monitored during 10 min. Surface Ab were generated by a 30-s to 1-min injection of glycine-HCL 10 mM pH 2. Kinetic rate constants were determined with purified antibodies. Concentrated hepcidin (0.39 nM to 12.5 nM) were injected over the chip surface at a rate of 60 μL/min to collect binding data. Data analyses were carried out with the BIAevaluation 3.0 software.

The target of the next experiment is T2, synthetic mouse hepcidin (mouse, UniProt Q9EQ21 59-83).
T2 construct: mature; also called murine hepcidin-25
T2 peptide (looked up): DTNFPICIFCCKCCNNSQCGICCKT
The experiment in a line: dot blot on nitrocellulose, antibody 1:200, HRP secondary antibody, ECL. The method, then: Samples of synthetic human hepcidin (100 to 500 ng) or synthetic mouse) hepcidin (500 ng) (Peptide International, Louisville, Ky., USA), or of […] sera from a patient with an inflammatory disease, or from a healthy volunteer, were used. In one experiment, one sample of synthetic human hepcidin (500 ng) was treated with Laemmli buffer. The samples were directly spotted onto the nitrocellulose membrane and allowed to dry overnight. Non-specific sites were blocked by soaking the membrane in 5% skim milk in TBS-T (1 hr, at room temperature).
The primary antibodies (AN-LP1 antibody, or irrelevant antibody HPC4 directed against the epitope […] (SEQ ID NO: 11) of human protein C) were added at a dilution of 1:200 from a solution at 6 mg/ml. Incubation was performed for 2 h at room temperature or overnight at +4° C.
After 3 washes with TBS-T, the membranes were incubated with the secondary antibody conjugated with horseradish peroxidase (1:5000) for 1 h at room temperature.

Experiment [2] has as its target T3, irrelevant peptide PELAPVSSNLKYTLDC
T3 construct: Negative control in the ELISA; also called control peptide
T3 peptide: PELAPVSSNLKYTLDC
The experiment can be described thus: ELISA on coated irrelevant peptide, anti-mouse peroxidase, ABTS, read at 405 nm. The method, then:
The hepcidin binding properties of AN-LP1 produced by hybridoma CNCM I-3794 were tested by ELISA. Synthetic human hepcidin-25 was coated on 96-well boxes, with a concentration of 1-10 microgram/ml in 100 mM carbonate buffer, pH 9.5. One part of the wells is coated with an irrelevant peptide ([…], SEQ ID NO: 10) to be able to determine the specific component of measured signal. After one night of contact, the wells are washed 3 times with a solution of PBS/0.05% tween 20, then saturated with a solution of 0.1M Tris 20%, sucrose pH 7.8. The mouse serums are added in duplicates, with 10-fold serial dilutions. After a 6 h incubation, the wells were washed three times with a solution of PBS 0.05%, tween 20 and an anti-mouse antibody coupled with peroxidase (Biosource) diluted to 1/5,000 in PBS, 0.1% BSA, 0.01% Tween 20 was added for an additional 1 h30-2 h.

B1: monoclonal antibody AN-LP1 produced by the hybridoma CNCM I-3794 (antibody, V domains shown)
VH: EVQLEESGGGLVQPGGSLKLSCAASGFTFSRYSMSWVRQTPEKRLEWVAYISDGGGSTYSPDTVKGRFSISRDNAQNTLYLQMSSLKSEDTAIFYCVRHARLEGYFDVWGAGTSVTVSS
VL: DVLTQSPASVAVSLGQRATISCRASESVDNYGNSFMNWYQQKPGQPPKLLIYRASNLESGIPARFSGSGSRTDFTLTINPVEADDVATYYCQQSNEDPTFGGGTKLEIKR
notes: also called AN-LP1 mAb; mAb AN-LP1
B1: the Kd in experiment [1] is 0.099 nM. In addition, the figures for the binding result (in the experiment with synthetic mouse hepcidin; in experiment [2]) were “no binding (tested: 500 ng)” and “no binding”, respectively.
